Holding throughout (test): EC50 of free RNA motif oligo competing protein binding to immobilised probe
The target in one series is T1, LSM6 (UniProt P62312).
T1 sequence: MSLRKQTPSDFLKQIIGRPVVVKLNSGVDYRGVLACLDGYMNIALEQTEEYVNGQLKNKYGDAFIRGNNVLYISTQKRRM
The procedure, abridged:
(§1)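 HEK293-FT lysate (2.5 mg protein/well) was pre-incubated 1 h at 4°C with free RNA oligos (0 nM to 30 μM), then 30 min at 4°C with the same 5′-amino-C6 oligos coupled to NHS-Sepharose beads. Bound proteins were quantified by label-free LC-MS/MS in three biological replicates and two independent experiments, and normalised to the water control. EC50 came from a four-parameter log-logistic fit; Kd is EC50 times a protein-dependent depletion factor.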

The target in another series is T2, ISY1 (UniProt Q9ULR0).
T2 sequence: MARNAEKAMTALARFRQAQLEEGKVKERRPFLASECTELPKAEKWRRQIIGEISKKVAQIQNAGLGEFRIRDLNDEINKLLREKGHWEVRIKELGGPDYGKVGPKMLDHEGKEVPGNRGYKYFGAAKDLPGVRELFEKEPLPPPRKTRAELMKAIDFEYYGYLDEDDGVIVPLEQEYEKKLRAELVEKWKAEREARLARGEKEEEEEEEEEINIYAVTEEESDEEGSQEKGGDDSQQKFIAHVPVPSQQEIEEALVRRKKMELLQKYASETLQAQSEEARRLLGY
Put shortly:
as §1

In the next series the target is TSN (UniProt Q15631). The procedure, abridged: as §1
A further series has as its target LSM3 (UniProt P62310). Put shortly:
as §1

The next series deals with T3, ZFP36L2 (UniProt P47974).
T3 sequence: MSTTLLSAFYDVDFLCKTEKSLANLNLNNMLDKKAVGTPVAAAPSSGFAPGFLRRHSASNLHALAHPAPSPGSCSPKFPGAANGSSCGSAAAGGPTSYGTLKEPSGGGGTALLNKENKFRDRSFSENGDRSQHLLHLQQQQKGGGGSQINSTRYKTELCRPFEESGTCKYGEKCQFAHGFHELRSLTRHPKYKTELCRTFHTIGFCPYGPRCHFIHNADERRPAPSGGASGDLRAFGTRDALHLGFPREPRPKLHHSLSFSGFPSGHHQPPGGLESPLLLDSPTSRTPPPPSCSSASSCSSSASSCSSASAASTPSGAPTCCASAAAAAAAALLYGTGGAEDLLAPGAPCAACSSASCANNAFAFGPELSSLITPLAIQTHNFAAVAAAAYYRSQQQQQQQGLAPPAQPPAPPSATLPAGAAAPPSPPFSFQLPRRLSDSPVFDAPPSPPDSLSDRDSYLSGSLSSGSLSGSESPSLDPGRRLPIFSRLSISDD
Put shortly:
as §1

The next series deals with T4, GPATCH3 (UniProt Q96I76).
T4 sequence: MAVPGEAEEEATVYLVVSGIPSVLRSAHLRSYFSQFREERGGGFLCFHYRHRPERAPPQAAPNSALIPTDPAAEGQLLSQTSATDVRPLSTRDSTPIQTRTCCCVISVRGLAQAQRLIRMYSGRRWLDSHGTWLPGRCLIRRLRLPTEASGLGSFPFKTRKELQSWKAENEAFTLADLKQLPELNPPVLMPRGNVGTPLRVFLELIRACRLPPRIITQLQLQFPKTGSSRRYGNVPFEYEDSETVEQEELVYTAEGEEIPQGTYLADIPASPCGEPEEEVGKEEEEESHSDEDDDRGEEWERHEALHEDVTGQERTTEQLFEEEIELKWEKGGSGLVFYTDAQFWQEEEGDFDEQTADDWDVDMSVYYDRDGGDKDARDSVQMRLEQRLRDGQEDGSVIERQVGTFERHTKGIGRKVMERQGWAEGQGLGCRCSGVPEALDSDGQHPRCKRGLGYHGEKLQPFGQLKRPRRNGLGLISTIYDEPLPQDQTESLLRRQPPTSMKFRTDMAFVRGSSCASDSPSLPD
The procedure, abridged:
as §1

The target in the next series is SLIRP (UniProt Q9GZT3). The procedure, abridged:
as §1

For another series, the target named is T5, ZNF830 (UniProt Q96NB3).
T5 sequence: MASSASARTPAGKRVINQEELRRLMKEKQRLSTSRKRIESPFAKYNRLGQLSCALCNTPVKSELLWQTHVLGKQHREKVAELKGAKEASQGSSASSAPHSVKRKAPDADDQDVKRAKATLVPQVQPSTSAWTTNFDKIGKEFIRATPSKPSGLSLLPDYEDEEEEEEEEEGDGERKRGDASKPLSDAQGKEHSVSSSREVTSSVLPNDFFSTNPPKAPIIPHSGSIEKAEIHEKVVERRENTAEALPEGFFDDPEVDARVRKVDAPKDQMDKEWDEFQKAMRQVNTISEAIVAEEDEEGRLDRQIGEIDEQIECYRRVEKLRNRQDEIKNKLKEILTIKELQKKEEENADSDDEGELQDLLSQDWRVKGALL
Put shortly: as §1

A further series concerns the target TOE1 (UniProt Q96GM8). Put shortly: as §1
In the next series the target is SRSF9 (UniProt Q13242). The procedure, abridged: as §1
The target in the next series is NCL (UniProt P19338). The procedure, abridged:
as §1

Chain of LSM3 (P62310 whole entry): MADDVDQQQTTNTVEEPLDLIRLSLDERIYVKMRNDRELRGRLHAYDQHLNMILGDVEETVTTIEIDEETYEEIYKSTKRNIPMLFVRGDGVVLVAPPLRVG
Chain of NCL (P19338 whole entry): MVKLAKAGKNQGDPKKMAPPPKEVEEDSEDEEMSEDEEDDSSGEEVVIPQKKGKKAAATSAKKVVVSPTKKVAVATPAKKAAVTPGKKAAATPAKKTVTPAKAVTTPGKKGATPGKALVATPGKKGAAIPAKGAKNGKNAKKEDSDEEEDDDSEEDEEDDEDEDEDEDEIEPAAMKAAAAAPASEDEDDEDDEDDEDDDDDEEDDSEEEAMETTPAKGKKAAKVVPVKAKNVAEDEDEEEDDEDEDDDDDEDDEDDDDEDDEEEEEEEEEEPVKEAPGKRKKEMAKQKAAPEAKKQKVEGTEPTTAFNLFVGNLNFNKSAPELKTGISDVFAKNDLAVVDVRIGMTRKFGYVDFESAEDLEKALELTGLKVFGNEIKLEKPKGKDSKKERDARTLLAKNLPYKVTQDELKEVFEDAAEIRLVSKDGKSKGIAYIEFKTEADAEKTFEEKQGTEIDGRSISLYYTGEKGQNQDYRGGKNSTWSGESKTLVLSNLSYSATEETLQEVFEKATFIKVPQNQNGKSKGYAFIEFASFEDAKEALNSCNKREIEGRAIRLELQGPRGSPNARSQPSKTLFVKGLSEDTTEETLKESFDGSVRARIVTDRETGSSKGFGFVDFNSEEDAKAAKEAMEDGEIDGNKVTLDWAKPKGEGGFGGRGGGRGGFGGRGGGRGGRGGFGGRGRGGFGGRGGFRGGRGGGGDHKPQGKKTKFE
Chain of TSN (Q15631 whole entry): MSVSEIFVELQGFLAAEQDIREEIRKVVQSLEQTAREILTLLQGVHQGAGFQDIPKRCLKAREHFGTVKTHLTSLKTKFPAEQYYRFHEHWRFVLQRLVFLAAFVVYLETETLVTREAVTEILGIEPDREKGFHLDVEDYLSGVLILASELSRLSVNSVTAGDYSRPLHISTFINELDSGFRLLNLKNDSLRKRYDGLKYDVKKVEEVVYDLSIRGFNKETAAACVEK
Chain of SRSF9 (Q13242 whole entry): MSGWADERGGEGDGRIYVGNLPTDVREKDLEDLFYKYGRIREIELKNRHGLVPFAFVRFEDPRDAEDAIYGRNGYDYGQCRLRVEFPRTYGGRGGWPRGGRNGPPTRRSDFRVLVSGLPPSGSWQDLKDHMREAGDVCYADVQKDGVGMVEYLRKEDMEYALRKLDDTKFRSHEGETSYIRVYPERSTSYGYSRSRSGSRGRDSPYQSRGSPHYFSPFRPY

Broadly, the EC50 is the concentration needed to bring the measured effect to its halfway point. A high value points to lower potency in that assay. Regarding AAUAAA, the half-maximal effective concentration (EC50) in the series with LSM6 is 797 nM; with ISY1 it was 914 nM; with TSN, 58.4 nM; with LSM3 it was 358 nM; in the series with ZFP36L2 it was 1830 nM; in the series with GPATCH3 it was 884 nM. The values for the EC50 with SLIRP, with ZNF830 and with TOE1 were 1580 nM, 1030 nM and 2110 nM, respectively.

Take CUGUCCU: the figures for the EC50 with SRSF9, with SLIRP and with NCL were 4530 nM, 1530 nM and 321 nM, respectively.

As for UAUUUAU, the EC50 was 447 nM in the series with LSM6; 8030 nM with SRSF9; 724 nM with ISY1; 75.2 nM with TSN; 694 nM with LSM3; 61.8 nM with ZFP36L2. Moreover, the 50% effective concentration (EC50) in the series with GPATCH3 came to 326 nM; in the series with NCL it was 2170 nM; with ZNF830 it was 378 nM; with TOE1 it was 1420 nM.

Values taken from the supplement of paper PMC6379048.
